Laboratory results taken from the supplement of paper PMC10065799, “High-throughput profiling of sequence recognition by tyrosine kinases and SH2 domains using bacterial peptide display” (eLife, 2023).

Assays:
c-Src SH2 = test: SH2 binding enrichment of the phosphorylated peptide, bacterial display (enrichment ratio); higher = better substrate or ligand; peptides without Tyr show the background
Grb2 SH2 = Grb2 SH2 (UniProt P62993); test: as above
SHP2-C SH2 = test: as above
MERTK = MERTK (UniProt Q12866); test: phosphorylation enrichment, bacterial display (enrichment ratio); higher = better substrate or ligand; peptides without Tyr show the background
Chain of MERTK (Q12866 whole entry, looked up): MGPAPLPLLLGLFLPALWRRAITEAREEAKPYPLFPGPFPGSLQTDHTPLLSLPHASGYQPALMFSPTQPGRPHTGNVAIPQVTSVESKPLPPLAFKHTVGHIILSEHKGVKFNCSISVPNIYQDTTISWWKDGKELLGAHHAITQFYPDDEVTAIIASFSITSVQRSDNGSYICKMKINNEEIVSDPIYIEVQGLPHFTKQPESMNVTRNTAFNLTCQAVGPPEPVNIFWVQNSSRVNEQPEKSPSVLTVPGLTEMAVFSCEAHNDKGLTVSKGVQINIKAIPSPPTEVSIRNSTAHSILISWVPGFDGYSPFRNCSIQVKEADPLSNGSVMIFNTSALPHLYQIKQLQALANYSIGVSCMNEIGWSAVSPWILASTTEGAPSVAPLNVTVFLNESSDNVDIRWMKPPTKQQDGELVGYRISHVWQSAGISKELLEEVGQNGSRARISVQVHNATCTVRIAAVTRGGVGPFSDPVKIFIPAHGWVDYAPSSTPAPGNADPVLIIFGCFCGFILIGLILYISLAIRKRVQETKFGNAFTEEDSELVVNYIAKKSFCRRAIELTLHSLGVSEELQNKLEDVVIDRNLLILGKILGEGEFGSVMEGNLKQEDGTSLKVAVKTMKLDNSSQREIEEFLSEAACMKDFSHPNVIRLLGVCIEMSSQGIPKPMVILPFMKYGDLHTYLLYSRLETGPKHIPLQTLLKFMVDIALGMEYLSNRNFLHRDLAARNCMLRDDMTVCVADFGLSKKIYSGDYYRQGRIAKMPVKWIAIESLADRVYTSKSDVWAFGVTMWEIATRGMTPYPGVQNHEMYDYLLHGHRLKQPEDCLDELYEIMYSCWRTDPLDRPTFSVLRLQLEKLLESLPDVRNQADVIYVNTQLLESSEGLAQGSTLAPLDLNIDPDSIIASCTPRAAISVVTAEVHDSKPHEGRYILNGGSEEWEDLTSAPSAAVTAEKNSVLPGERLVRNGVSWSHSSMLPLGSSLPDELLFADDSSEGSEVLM

c-Abl (mouse) = test: as above
Hck = Hck (UniProt P08631); test: as above
Chain of Hck (P08631 whole entry, looked up): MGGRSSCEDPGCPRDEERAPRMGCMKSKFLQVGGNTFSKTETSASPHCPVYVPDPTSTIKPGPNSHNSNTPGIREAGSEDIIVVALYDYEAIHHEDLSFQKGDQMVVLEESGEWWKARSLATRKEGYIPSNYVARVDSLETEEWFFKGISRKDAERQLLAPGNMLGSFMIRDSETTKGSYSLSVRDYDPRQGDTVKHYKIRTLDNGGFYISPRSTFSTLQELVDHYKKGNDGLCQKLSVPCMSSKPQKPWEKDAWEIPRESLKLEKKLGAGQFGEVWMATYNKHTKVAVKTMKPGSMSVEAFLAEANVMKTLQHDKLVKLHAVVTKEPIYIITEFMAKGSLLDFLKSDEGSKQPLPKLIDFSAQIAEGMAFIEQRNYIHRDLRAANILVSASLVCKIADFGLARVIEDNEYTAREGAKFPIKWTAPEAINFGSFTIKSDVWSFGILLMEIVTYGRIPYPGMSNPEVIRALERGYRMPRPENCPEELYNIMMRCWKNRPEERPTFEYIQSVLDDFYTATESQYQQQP

Fer (mouse) = test: as above
EPHB2 = EPHB2 (UniProt P29323); test: as above
Chain of EPHB2 (P29323 whole entry, looked up): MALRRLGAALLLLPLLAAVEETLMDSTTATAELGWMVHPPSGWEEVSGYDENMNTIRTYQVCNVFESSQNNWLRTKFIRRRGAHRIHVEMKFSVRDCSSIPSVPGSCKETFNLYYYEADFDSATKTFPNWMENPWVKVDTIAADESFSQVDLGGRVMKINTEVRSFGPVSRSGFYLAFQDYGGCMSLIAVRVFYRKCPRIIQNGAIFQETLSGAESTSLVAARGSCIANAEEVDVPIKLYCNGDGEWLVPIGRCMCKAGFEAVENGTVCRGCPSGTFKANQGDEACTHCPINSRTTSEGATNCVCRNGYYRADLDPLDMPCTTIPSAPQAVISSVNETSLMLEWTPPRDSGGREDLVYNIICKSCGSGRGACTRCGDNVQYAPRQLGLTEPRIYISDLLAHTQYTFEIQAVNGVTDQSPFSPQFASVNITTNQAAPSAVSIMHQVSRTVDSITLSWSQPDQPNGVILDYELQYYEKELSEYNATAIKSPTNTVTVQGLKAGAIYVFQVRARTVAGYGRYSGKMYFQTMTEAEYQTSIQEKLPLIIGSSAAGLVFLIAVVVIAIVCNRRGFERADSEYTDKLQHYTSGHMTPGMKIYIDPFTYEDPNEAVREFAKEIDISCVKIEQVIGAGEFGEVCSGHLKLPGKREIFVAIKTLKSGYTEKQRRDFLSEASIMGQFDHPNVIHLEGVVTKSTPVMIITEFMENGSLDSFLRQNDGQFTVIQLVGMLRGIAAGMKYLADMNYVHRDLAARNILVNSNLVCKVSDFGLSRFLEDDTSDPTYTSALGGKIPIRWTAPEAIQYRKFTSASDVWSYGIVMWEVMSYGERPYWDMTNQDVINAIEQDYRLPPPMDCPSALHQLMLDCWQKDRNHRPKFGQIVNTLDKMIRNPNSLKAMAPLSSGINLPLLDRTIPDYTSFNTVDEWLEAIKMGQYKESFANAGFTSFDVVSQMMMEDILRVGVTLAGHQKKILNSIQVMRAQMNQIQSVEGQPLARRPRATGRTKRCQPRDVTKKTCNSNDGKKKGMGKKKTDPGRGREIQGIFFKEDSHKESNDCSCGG

Fyn = Fyn (UniProt P06241); test: as above
Chain of Fyn (P06241 whole entry, looked up): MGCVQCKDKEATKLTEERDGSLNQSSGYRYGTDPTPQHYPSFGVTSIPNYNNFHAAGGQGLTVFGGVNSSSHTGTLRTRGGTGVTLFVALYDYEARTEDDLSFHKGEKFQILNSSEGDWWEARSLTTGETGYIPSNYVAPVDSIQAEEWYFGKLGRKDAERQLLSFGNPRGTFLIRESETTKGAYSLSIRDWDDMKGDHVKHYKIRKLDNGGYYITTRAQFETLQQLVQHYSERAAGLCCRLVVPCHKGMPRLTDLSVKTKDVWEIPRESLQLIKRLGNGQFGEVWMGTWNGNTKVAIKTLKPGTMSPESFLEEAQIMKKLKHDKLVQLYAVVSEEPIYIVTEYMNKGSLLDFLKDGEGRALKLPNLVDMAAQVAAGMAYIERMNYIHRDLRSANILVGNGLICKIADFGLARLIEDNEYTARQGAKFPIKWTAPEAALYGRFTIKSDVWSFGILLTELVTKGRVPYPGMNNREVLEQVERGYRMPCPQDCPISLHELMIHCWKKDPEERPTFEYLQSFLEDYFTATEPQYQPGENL

EPHB1 = EPHB1 (UniProt P54762); test: as above
FGFR3 = FGFR3 (UniProt P22607); test: as above
Chain of FGFR3 (P22607 whole entry, looked up): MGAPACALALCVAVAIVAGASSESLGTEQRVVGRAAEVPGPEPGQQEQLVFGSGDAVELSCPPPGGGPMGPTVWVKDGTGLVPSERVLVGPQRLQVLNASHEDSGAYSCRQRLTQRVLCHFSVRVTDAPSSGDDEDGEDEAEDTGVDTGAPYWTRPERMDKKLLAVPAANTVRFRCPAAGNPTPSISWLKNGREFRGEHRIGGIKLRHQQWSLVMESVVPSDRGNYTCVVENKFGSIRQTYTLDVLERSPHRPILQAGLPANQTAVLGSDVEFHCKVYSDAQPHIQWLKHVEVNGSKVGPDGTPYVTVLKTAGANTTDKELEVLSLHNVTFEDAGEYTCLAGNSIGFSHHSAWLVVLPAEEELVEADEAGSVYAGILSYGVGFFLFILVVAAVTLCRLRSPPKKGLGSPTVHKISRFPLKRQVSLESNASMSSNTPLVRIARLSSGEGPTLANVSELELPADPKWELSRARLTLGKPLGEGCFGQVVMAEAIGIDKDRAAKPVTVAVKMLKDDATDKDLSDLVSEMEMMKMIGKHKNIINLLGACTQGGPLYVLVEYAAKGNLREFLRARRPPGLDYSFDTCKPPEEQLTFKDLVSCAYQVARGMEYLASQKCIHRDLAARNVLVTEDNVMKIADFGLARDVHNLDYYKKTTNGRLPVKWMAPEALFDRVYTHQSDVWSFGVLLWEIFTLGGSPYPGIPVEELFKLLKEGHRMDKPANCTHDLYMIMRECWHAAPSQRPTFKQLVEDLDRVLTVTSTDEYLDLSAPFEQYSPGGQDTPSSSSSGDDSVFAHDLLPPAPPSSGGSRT

FGFR1 = FGFR1 (UniProt P11362); test: as above
c-Src = test: as above
AncSZ = test: as above
Fes = Fes (UniProt P07332); test: as above
Chain of Fes (P07332 whole entry, looked up): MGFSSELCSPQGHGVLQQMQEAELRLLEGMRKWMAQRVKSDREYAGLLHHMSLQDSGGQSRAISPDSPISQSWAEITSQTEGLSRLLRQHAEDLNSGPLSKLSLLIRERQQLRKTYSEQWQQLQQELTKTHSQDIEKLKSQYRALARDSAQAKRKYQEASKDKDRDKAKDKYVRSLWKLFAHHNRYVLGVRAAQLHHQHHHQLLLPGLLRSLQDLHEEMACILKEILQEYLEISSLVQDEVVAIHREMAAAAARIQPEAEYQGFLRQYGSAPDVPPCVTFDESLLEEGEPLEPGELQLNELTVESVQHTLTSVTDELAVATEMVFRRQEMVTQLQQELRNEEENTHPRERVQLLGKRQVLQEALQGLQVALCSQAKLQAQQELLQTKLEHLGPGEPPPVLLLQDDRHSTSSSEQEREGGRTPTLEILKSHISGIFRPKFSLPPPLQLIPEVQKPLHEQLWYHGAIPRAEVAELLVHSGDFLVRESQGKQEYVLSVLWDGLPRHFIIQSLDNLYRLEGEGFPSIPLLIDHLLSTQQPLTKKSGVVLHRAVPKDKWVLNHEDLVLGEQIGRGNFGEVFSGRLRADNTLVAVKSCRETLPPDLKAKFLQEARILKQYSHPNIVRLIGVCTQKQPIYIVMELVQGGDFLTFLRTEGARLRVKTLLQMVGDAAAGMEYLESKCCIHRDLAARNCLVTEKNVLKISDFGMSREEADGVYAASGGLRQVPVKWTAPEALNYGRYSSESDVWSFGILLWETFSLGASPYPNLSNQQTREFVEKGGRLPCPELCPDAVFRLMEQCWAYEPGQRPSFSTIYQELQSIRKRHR

Jak2 = Jak2 (UniProt O60674); test: as above
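Wherever SH2 binding enrichment of the phosphorylated peptide, bacterial display is given: peptide library displayed on the E. coli surface as eCPX fusions, selected cells deep-sequenced, score is each peptide's frequency after selection divided by its frequency in the input.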
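Wherever phosphorylation enrichment, bacterial display is given: 11-residue human phosphosite peptides and single-mutation variants displayed on the E. coli surface, counted by deep sequencing, each peptide's frequency after selection divided by its frequency in the unselected input library; frequency after pTyr selection over input frequency; kinase dosed for 20-30% of maximal phosphorylation in three min.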

Row | Sequence | SH2 binding enrichment (c-Src SH2) | SH2 binding enrichment (Grb2 SH2) | SH2 binding enrichment (SHP2-C SH2) | phosphorylation enrichment (MERTK) | phosphorylation enrichment (c-Abl (mouse)) | phosphorylation enrichment (Hck) | phosphorylation enrichment (Fer (mouse)) | phosphorylation enrichment (EPHB2) | phosphorylation enrichment (Fyn) | phosphorylation enrichment (EPHB1) | phosphorylation enrichment (FGFR3) | phosphorylation enrichment (FGFR1) | phosphorylation enrichment (c-Src) | phosphorylation enrichment (AncSZ) | phosphorylation enrichment (Fes) | phosphorylation enrichment (Jak2)
1 | AALKLYHVSDS [VIL1_Y256] | 0.434 | 0.613 | 1.18 | 0.847 | 0.537 | 0.623 | 0.427 | 0.558 | 0.561 | 0.493 | 0.672 | 0.511 | 0.417 | 0.815 | 0.766 | 0.635
2 | ADLAKYICENQ [ALB_Y287] | 0.607 | 0.868 | 0.754 | 0.386 | 0.83 | 0.627 | 0.459 | 0.63 | 0.461 | 0.672 | 0.788 | 0.485 | 0.505 | 0.979 | 1.13 | 1.09
3 | AEEKEYHAEGG [EGFR_Y869] | 0.471 | 0.924 | 0.748 | 0.403 | 0.653 | 0.451 | 0.572 | 0.593 | 0.536 | 0.623 | 0.596 | 0.474 | 0.486 | 1.09 | 1.05 | 0.908
4 | AEKPKYQISNI [TJP1_Y1602_N1605S] | 0.503 | 0.739 | 0.516 | 0.333 | 0.54 | 0.41 | 0.377 | 0.376 | 0.372 | 0.286 | 0.409 | 0.358 | 0.36 | 0.896 | 0.544 | 0.401
5 | AEPNIYQEKLS [USP54_Y1233_D1231N] | 0.808 | 1.12 | 0.916 | 0.339 | 0.802 | 0.778 | 0.34 | 0.462 | 0.727 | 0.401 | 0.505 | 0.442 | 0.679 | 0.763 | 0.748 | 0.948
6 | AFLQTYSHEVS [PCDHGA5_Y753] | 0.57 | 1.01 | 0.873 | 0.585 | 0.518 | 0.551 | 0.531 | 0.64 | 0.602 | 0.584 | 0.683 | 0.442 | 0.812 | 0.845 | 0.971 | 0.957
7 | AKKVFYVIETR [SHH_Y253] | 0.775 | 1.2 | 1.03 | 0.361 | 0.627 | 0.422 | 0.401 | 0.582 | 0.465 | 0.569 | 0.765 | 0.542 | 0.412 | 1.12 | 1.26 | 1.01
8 | AKRKNYAPVAM [CFAP47_Y557] | 1.05 | 1.11 | 1.26 | 0.468 | 0.57 | 0.392 | 0.302 | 0.425 | 0.393 | 0.648 | 0.371 | 0.654 | 0.432 | 0.562 | 0.521 | 0.341
9 | ALCHYYKLNII [ETV6_Y402_R399C] | 0.855 | 0.895 | 1.34 | 2.26 | 2 | 1.09 | 0.615 | 0.738 | 0.798 | 0.97 | 5.13 | 5.97 | 1.54 | 1.59 | 1.62 | 3.3
10 | ASTDYYKRGDF [PDHA1_Y243] | 0.44 | 0.767 | 0.753 | 0.369 | 0.559 | 0.465 | 0.321 | 0.409 | 0.368 | 0.287 | 0.501 | 0.436 | 0.5 | 0.685 | 0.71 | 0.754
11 | ATLDVYNPFET [SCAMP3_Y41] | 0.536 | 0.872 | 0.524 | 0.556 | 0.838 | 2.15 | 0.581 | 0.537 | 2.49 | 0.629 | 0.652 | 0.52 | 3.24 | 1.09 | 1.42 | 1.37
12 | AVNDFYAAKKT [CCDC178_Y422] | 0.457 | 1.07 | 0.87 | 0.449 | 0.61 | 0.5 | 0.381 | 0.372 | 0.508 | 0.464 | 0.551 | 0.648 | 0.429 | 0.629 | 0.703 | 0.548
13 | CEHFSYFGMKA [SLC15A2_Y60_R57H_YF] | 0.604 | 0.801 | 0.545 | 0.469 | 0.605 | 0.444 | 0.452 | 0.516 | 0.379 | 0.555 | 0.902 | 1.61 | 0.673 | 0.879 | 0.845 | 3.82
14 | CPYNLYAAQLS [HGD_Y40_E42A] | 0.603 | 0.895 | 0.672 | 5.62 | 0.857 | 3.08 | 3.49 | 4.3 | 3.15 | 4.48 | 0.939 | 0.815 | 6.42 | 1.28 | 1.13 | 0.917
15 | TCRPPYYHRNC [HGD_Y333_F329C] | 1.01 | 1.76 | 3.31 | 0.235 | 0.197 | 0.218 | 0.233 |  | 0.093 |  | 0.493 | 0.398 | 0.251 | 0.243 | 0.713 | 0.162

Continued, in another order:

Row | SH2 binding enrichment (c-Src SH2) | SH2 binding enrichment (Grb2 SH2) | SH2 binding enrichment (SHP2-C SH2) | Sequence | phosphorylation enrichment (MERTK) | phosphorylation enrichment (c-Abl (mouse)) | phosphorylation enrichment (Hck) | phosphorylation enrichment (Fer (mouse)) | phosphorylation enrichment (EPHB2) | phosphorylation enrichment (Fyn) | phosphorylation enrichment (EPHB1) | phosphorylation enrichment (FGFR3) | phosphorylation enrichment (FGFR1) | phosphorylation enrichment (c-Src) | phosphorylation enrichment (AncSZ) | phosphorylation enrichment (Fes) | phosphorylation enrichment (Jak2)
16 | 0.434 | 0.768 | 0.592 | ACEVLYNIAFM [NCF2_Y125] | 2.03 | 2.57 | 2.45 | 5.68 | 0.859 | 1.97 | 0.983 | 1.49 | 0.976 | 2.17 | 2.01 | 1.53 | 1.11
17 | 1.84 | 0.862 | 0.656 | ADCRYYAFPQM [GAMT_Y223] | 9.72 | 7.97 | 3.1 | 8.45 | 10.8 | 2.75 | 9.71 | 8.74 | 11 | 3.76 | 4.46 | 1.33 | 5.86
18 | 2.15 | 1.02 | 0.649 | ADNQRYAFMPL [TMEM87B_Y460_N456D] | 6.67 | 0.781 | 0.628 | 0.502 | 0.663 | 0.503 | 1.07 | 0.641 | 0.733 | 0.452 | 0.728 | 0.812 | 0.673
19 | 0.674 | 1.19 | 0.785 | AEPDIYQEKLS [USP54_Y1233] | 0.405 | 0.692 | 0.702 | 0.485 | 0.508 | 0.58 | 0.531 | 0.623 | 0.457 | 0.568 | 0.994 | 1.08 | 1.01
20 | 4.34 | 0.89 | 0.478 | AGADGYDYLAP [FOXL2_Y186_G187D] | 0.647 | 0.655 | 0.903 | 0.62 | 0.587 | 0.534 | 0.585 | 0.783 | 0.611 | 0.388 | 3.5 | 0.99 | 0.997
21 | 0.479 | 0.79 | 0.83 | AKKIKYFEGVS [PRKDC_Y682] | 0.383 | 0.328 | 0.447 | 0.42 | 0.44 | 0.321 | 0.324 | 0.332 | 0.295 | 0.387 | 0.429 | 0.547 | 0.427
22 | 1.06 | 1.46 | 1.01 | AKKVFYMIETR [SHH_Y253_V254M] | 0.386 | 0.673 | 0.444 | 0.561 | 0.622 | 0.439 | 0.606 | 0.881 | 0.448 | 0.472 | 1.15 | 1.24 | 1.02
23 | 1.42 | 0.956 | 0.804 | APSGNYVACGG [GNB1_Y111] | 0.437 | 0.584 | 0.429 | 0.513 | 0.691 | 0.363 | 0.822 | 1.07 | 0.478 | 0.301 | 1.13 | 0.788 | 0.571
24 | 0.679 | 0.988 | 0.899 | APSHAYHRGVL [ANO1_Y981_G983R] | 0.38 | 0.51 | 0.385 | 0.411 | 0.355 | 0.424 | 0.363 | 0.472 | 0.395 | 0.426 | 0.507 | 0.583 | 0.534
25 | 2.99 | 0.826 | 0.668 | APTSGYQEFVH [IL4R_Y575] | 0.426 | 0.524 | 0.503 | 0.401 | 0.535 | 0.545 | 0.36 | 0.51 | 0.539 | 0.419 | 0.741 | 0.764 | 0.611
26 | 0.685 | 0.886 | 0.68 | AQINLYQDVML [ZNF806_Y33] | 2.17 | 0.928 | 2.05 | 15.4 | 8.39 | 1.15 | 15 | 1.29 | 1.14 | 1.05 | 1.25 | 2.83 | 1.01
27 | 0.852 | 1.15 | 1.08 | AQMAMYFWEMS [TRPM4_Y577_G582S] | 2.5 | 1.14 | 1.18 | 0.9 | 1.05 | 1.15 | 1.09 | 2.88 | 3.42 | 2.52 | 1.86 | 1.73 | 1.61
28 | 0.646 | 1.1 | 0.847 | ARKCKYFKKHE [NFIX_Y40_R38C] | 0.486 | 0.75 | 0.48 | 0.443 | 0.403 | 0.463 | 0.452 | 0.565 | 0.428 | 0.545 | 0.619 | 0.974 | 0.596
29 | 0.771 | 0.986 | 0.475 | ASELGYVFQAI [UROD_Y133] | 0.264 | 0.545 | 0.378 | 0.386 | 0.566 | 0.397 | 0.471 | 0.749 | 0.483 | 0.423 | 1.03 | 0.852 | 0.924
30 | 0.672 | 1.15 | 0.806 | ASLLPYFPAIM [IPO4_Y518] | 0.364 | 0.626 | 0.484 | 0.532 | 0.576 | 0.544 | 0.479 | 0.694 | 0.537 | 0.457 | 0.782 | 0.938 | 0.802
31 | 0.858 | 0.82 | 0.871 | ATGGFYSYGGG [KRT24_Y120] | 11.6 | 0.763 | 1.8 | 4.4 | 0.885 | 2.39 | 0.881 | 0.659 | 0.506 | 1.26 | 0.906 | 1.11 | 0.858
32 | 0.674 | 0.935 | 0.825 | ATHSRYRLNDF [CLDN14_Y233_G232R_YF] | 0.391 | 0.546 | 0.449 | 0.349 | 0.337 | 0.329 | 0.296 | 0.308 | 0.307 | 0.36 | 0.419 | 0.706 | 0.413
33 | 0.509 | 0.646 | 0.497 | AVRVFYRKCPH [EPHB2_Y194_R199H] | 0.485 | 1.14 | 0.604 | 0.452 | 0.711 | 0.496 | 0.588 | 0.668 | 0.563 | 0.424 | 1.22 | 1.08 | 0.804
34 | 3.43 | 0.942 | 0.902 | CLAKMYYSAVD [CP_Y539] | 2.33 | 0.674 | 0.708 | 1.18 | 0.701 | 0.572 | 1.02 | 0.936 | 0.812 | 0.722 | 1.14 | 1.18 | 0.956
